The results in this text go back to paper PMC10086585, “From netrin‐1‐targeted SPECT/CT to internal radiotherapy for management of advanced solid tumors” (EMBO Molecular Medicine, 2023).

The target in the test is T1, human recombinant netrin‐1, on AHC biosensors (human, UniProt O95631 25-604).
T1 construct: netrin-1, human, recombinant; AHC sensors capture human IgG Fc, so an Fc-tagged netrin-1 is surmised; Capture through a human antibody cannot be excluded; It may otherwise be the same protein as m1; also called h‐netrin‐1
In words: BLI; netrin-1 on AHC biosensors; analytes at 3.12-100 nM; 30°C, 1,000 rpm; PBS, 0.02% Tween-20, 0.1% BSA; 5 min association, 5 min dissociation. The following applies: both partners purified. (Biolayer interferometry detects binding as a change in optical thickness at a sensor tip.)

B1: recombinant human glypican‐1 (natural protein, UniProt P35052 24-530, looked up)
chain: DPASKSRSCGEVRQIYGAKGFSLSDVPQAEISGEHLRICPQGYTCCTSEMEENLANRSHAELETALRDSSRVLQAMLATQLRSFDDHFQHLLNDSERTLQATFPGAFGELYTQNARAFRDLYSELRLYYRGANLHLEETLAEFWARLLERLFKQLHPQLLLPDDYLDCLGKQAEALRPFGEAPRELRLRATRAFVAARSFVQGLGVASDVVRKVAQVPLGPECSRAVMKLVYCAHCLGVPGARPCPDYCRNVLKGCLANQADLDAEWRNLLDSMVLITDKFWGTSGVESVIGSVHTWLAEAINALQDNRDTLTAKVIQGCGNPKVNPQGPGPEEKRRRGKLAPRERPPSGTLEKLVSEAKAQLRDVQDFWISLPGTLCSEKMALSTASDDRCWNGMARGRYLPEVMGDGLANQINNPEVEVDITKPDMTIRQQIMQLKIMTNRLRSAYNGNDVDFQDASDDGSGSGSGDGCLDDLCSRKVSRKSSSSRTPLTHALPGLSEQEGQKTS
notes: glypican-1, human, recombinant; also called hGlypican‐1
The Kd is the concentration at which binding is half-saturated. B1: the Kd was determined as 15.6 nM.

B2: fibronectin leucine‐rich transmembrane protein (FLRT1), recombinant human (natural protein, UniProt Q9NZU1 49-552, looked up)
chain: IDSTTCPSVCRCDNGFIYCNDRGLTSIPADIPDDATTLYLQNNQINNAGIPQDLKTKVNVQVIYLYENDLDEFPINLPRSLRELHLQDNNVRTIARDSLARIPLLEKLHLDDNSVSTVSIEEDAFADSKQLKLLFLSRNHLSSIPSGLPHTLEELRLDDNRISTIPLHAFKGLNSLRRLVLDGNLLANQRIADDTFSRLQNLTELSLVRNSLAAPPLNLPSAHLQKLYLQDNAISHIPYNTLAKMRELERLDLSNNNLTTLPRGLFDDLGNLAQLLLRNNPWFCGCNLMWLRDWVKARAAVVNVRGLMCQGPEKVRGMAIKDITSEMDECFETGPQGGVANAAAKTTASNHASATTPQGSLFTLKAKRPGLRLPDSNIDYPMATGDGAKTLAIHVKALTADSIRITWKATLPASSFRLSWLRLGHSPAVGSITETLVQGDKTEYLLTALEPKSTYIICMVTMETSNAYVADETPVCAKAETADSYGPTTTLNQEQNAGPMASLP
notes: FLRT1 (fibronectin leucine-rich transmembrane protein 1), human, recombinant; also called hFLRT‐1; FLTR1
Regarding B2, the Kd is 15.5 nM.

B3: recombinant human lumican (natural protein, UniProt P51884 19-338, looked up)
chain: QYYDYDFPLSIYGQSSPNCAPECNCPESYPSAMYCDELKLKSVPMVPPGIKYLYLRNNQIDHIDEKAFENVTDLQWLILDHNLLENSKIKGRVFSKLKQLKKLHINHNNLTESVGPLPKSLEDLQLTHNKITKLGSFEGLVNLTFIHLQHNRLKEDAVSAAFKGLKSLEYLDLSFNQIARLPSGLPVSLLTLYLDNNKISNIPDEYFKRFNALQYLRLSHNELADSGIPGNSFNVSSLVELDLSYNKLKNIPTVNENLENYYLEVNQLEKFDIKSFCKILGPLSYSKIKHLRLDGNRISETSLPPDMYECLRVANEVTLN
notes: lumican, human, recombinant; also called hLumican
As for B3, the Kd stood at 15.5 nM.

B4: recombinant human integrin α6β4 (complex)
chain 1: FNLDTREDNVIRKYGDPGSLFGFSLAMHWQLQPEDKRLLLVGAPRAEALPLQRANRTGGLYSCDITARGPCTRIEFDNDADPTSESKEDQWMGVTVQSQGPGGKVVTCAHRYEKRQHVNTKQESRDIFGRCYVLSQNLRIEDDMDGGDWSFCDGRLRGHEKFGSCQQGVAATFTKDFHYIVFGAPGTYNWKGIVRVEQKNNTFFDMNIFEDGPYEVGGETEHDESLVPVPANSYLGLLFLTSVSYTDPDQFVYKTRPPREQPDTFPDVMMNSYLGFSLDSGKGIVSKDEITFVSGAPRANHSGAVVLLKRDMKSAHLLPEHIFDGEGLASSFGYDVAVVDLNKDGWQDIVIGAPQYFDRDGEVGGAVYVYMNQQGRWNNVKPIRLNGTKDSMFGIAVKNIGDINQDGYPDIAVGAPYDDLGKVFIYHGSANGINTKPTQVLKGISPYFGYSIAGNMDLDRNSYPDVAVGSLSDSVTIFRSRPVINIQKTITVTPNRIDLRQKTACGAPSGICLQVKSCFEYTANPAGYNPSISIVGTLEAEKERRKSGLSSRVQFRNQGSEPKYTQELTLKRQKQKVCMEETLWLQDNIRDKLRPIPITASVEIQEPSSRRRVNSLPEVLPILNSDEPKTAHIDVHFLKEGCGDDNVCNSNLKLEYKFCTREGNQDKFSYLPIQKGVPELVLKDQKDIALEITVTNSPSNPRNPTKDGDDAHEAKLIATFPDTLTYSAYRELRAFPEKQLSCVANQNGSQADCELGNPFKRNSNVTFYLVLSTTEVTFDTPDLDINLKLETTSNQDNLAPITAKAKVVIELLLSVSGVAKPSQVYFGGTVVGEQAMKSEDEVGSLIEYEFRVINLGKPLTNLGTATLNIQWPKEISNGKWLLYLVKVESKGLEKVTCEPQKEINSLNLTESHNSRKKREITEKQIDDNRKFSLFAERKYQTLNCSVNVNCVNIRCPLRGLDSKASLILRSRLWNSTFLEEYSKLNYLDILMRAFIDVTAAAENIRLPNAGTQVRVTVFPSKTVAQYS
chain 2: NRCKKAPVKSCTECVRVDKDCAYCTDEMFRDRRCNTQAELLAAGCQRESIVVMESSFQITEETQIDTTLRRSQMSPQGLRVRLRPGEERHFELEVFEPLESPVDLYILMDFSNSMSDDLDNLKKMGQNLARVLSQLTSDYTIGFGKFVDKVSVPQTDMRPEKLKEPWPNSDPPFSFKNVISLTEDVDEFRNKLQGERISGNLDAPEGGFDAILQTAVCTRDIGWRPDSTHLLVFSTESAFHYEADGANVLAGIMSRNDERCHLDTTGTYTQYRTQDYPSVPTLVRLLAKHNIIPIFAVTNYSYSYYEKLHTYFPVSSLGVLQEDSSNIVELLEEAFNRIRSNLDIRALDSPRGLRTEVTSKMFQKTRTGSFHIRRGEVGIYQVQLRALEHVDGTHVCQLPEDQKGNIHLKPSFSDGLKMDAGIICDVCTCELQKEVRSARCSFNGDFVCGQCVCSEGWSGQTCNCSTGSLSDIQPCLREGEDKPCSGRGECQCGHCVCYGEGRYEGQFCEYDNFQCPRTSGFLCNDRGRCSMGQCVCEPGWTGPSCDCPLSNATCIDSNGGICNGRGHCECGRCHCHQQSLYTDTICEINYSAIHPGLCEDLRSCVQCQAWGTGEKKGRTCEECNFKVKMVDELKRAEEVVVRCSFRDEDDDCTYSYTMEGDGAPGPNSTVLVHKKKDCPPGS
notes: integrin alpha-6, human, recombinant; integrin beta-4, human, recombinant; also called hIntegrin
As to B4, the Kd amounted to 0.96 nM.

B5: recombinant human vitronectin (natural protein, UniProt P04004 20-478, looked up)
chain: DQESCKGRCTEGFNVDKKCQCDELCSYYQSCCTDYTAECKPQVTRGDVFTMPEDEYTVYDDGEEKNNATVHEQVGGPSLTSDLQAQSKGNPEQTPVLKPEEEAPAPEVGASKPEGIDSRPETLHPGRPQPPAEEELCSGKPFDAFTDLKNGSLFAFRGQYCYELDEKAVRPGYPKLIRDVWGIEGPIDAAFTRINCQGKTYLFKGSQYWRFEDGVLDPDYPRNISDGFDGIPDNVDAALALPAHSYSGRERVYFFKGKQYWEYQFQHQPSQEECEGSSLSAVFEHFAMMQRDSWEDIFELLFWGRTSAGTRQPQFISRDWHGVPGQVDAAMAGRIYISGMAPRPSLAKKQRFRHRNRKGYRSQRGHSRGRNQNSRRPSRATWLSLFSSEESNLGANNYDDYRMDWLVPATCEPIQSVFFFSGDKYYRVNLRTRRVDTVDPPYPRSIAQYWLGCPAPGHL
notes: vitronectin, human, recombinant; also called hVitronectin
As for B5, the Kd was found to be 6.85 nM.
